Results: PMC9972587, “SIRT2-PFKP interaction dysregulates phagocytosis in macrophages with acute ethanol-exposure” (Frontiers in Immunology, 2022)

Biological target: T1, Human recombinant PFKP protein (His and GST tag) (human, UniProt Q01813 1-784)
T1 construct: Phosphofructokinase, platelet isoform (PFKP), human, recombinant; also called human PFKP protein; source: bought: Sino Biological (CAT# 15003-H20B)
T1 sequence (looked up): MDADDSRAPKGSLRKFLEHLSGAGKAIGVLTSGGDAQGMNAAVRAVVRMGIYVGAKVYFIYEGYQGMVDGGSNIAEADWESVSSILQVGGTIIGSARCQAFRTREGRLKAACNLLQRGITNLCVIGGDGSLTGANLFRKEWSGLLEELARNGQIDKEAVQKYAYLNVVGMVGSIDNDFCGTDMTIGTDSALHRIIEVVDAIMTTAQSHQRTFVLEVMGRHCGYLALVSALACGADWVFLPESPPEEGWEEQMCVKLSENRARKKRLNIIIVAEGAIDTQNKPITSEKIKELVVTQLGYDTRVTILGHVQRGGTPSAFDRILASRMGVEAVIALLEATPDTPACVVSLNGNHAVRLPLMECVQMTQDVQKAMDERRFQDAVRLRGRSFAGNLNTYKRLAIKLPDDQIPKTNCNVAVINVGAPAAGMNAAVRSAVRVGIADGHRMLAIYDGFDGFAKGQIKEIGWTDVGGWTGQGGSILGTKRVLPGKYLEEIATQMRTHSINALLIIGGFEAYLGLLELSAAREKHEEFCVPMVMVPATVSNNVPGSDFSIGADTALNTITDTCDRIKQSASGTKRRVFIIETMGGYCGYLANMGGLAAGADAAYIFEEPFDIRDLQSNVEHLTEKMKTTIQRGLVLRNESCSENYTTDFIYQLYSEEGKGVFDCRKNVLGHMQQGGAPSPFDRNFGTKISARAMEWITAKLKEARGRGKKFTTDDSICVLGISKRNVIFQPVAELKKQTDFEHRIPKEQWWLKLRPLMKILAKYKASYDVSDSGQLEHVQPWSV
Assay: SPR; Biacore S200; human SIRT2 immobilised on CM5 chip by amine coupling (10 mM sodium acetate pH 4.0 with 20 uM NAD+); PFKP injected at 15.62-1000 nM, contact time 120 s, 15 uL/minute; running buffer HBS-P+ pH 7.4; steady state equilibrium binding model
Details: both partners purified

B1: Recombinant human SIRT2 protein (enzyme, UniProt Q8IXJ6 1-389, looked up)
chain: MAEPDPSHPLETQAGKVQEAQDSDSDSEGGAAGGEADMDFLRNLFSQTLSLGSQKERLLDELTLEGVARYMQSERCRRVICLVGAGISTSAGIPDFRSPSTGLYDNLEKYHLPYPEAIFEISYFKKHPEPFFALAKELYPGQFKPTICHYFMRLLKDKGLLLRCYTQNIDTLERIAGLEQEDLVEAHGTFYTSHCVSASCRHEYPLSWMKEKIFSEVTPKCEDCQSLVKPDIVFFGESLPARFFSCMQSDFLKVDLLLVMGTSLQVQPFASLISKAPLSTPRLLINKEKAGQSDPFLGMIMGLGGGMDFDSKKAYRDVAWLGECDQGCLALAELLGWKKELEDLVRREHASIDAQSGAGVPNPSTSASPKKSPPPAKDEARTTEREKPQ
notes: Sirtuin 2 (SIRT2), human, recombinant; also called human SIRT2 ligand; source: bought: Sigma-Aldrich (CAT# SRP0116)
Kd: 100 nM
